According to paper PMC9482650, “Quantitative fragmentomics allow affinity mapping of interactomes” (Nature Communications, 2022):

Legend:
Assay in all cases: holdup assay
Design in all cases: key: below the threshold = too weak to quantify, mostly under pKd 3.1 to 4
MPP6, Q9NZW5 = biological target: T1, MPP6, Q9NZW5
T1 sequence (Q9NZW5 125-219, limits assumed, looked up): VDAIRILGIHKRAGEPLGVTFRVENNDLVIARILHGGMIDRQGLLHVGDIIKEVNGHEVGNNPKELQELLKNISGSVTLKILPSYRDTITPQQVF

GRIP1_3, Q9Y3R0 = biological target: T2, GRIP1_3, Q9Y3R0
T2 sequence (Q9Y3R0 247-346, limits assumed, looked up): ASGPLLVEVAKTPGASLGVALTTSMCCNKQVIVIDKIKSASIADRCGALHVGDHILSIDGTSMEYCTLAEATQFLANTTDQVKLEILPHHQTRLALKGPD

CASK, O14936 = biological target: CASK, O14936
DFNB31_1, Q9P202 = biological target: T3, DFNB31_1, Q9P202
T3 sequence (Q9P202 135-233, limits assumed, looked up): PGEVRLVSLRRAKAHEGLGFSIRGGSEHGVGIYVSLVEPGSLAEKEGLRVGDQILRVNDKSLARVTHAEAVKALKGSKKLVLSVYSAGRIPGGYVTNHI

PCLO, Q9Y6V0 = biological target: T4, PCLO, Q9Y6V0
T4 sequence (Q9Y6V0 4491-4600, limits assumed, looked up): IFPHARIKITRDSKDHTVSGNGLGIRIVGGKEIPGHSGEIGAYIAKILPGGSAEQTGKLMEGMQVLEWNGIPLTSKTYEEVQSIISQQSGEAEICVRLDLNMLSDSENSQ

PARD3B_1, Q8TEW8 = biological target: T5, PARD3B_1, Q8TEW8
T5 sequence (Q8TEW8 196-299, limits assumed, looked up): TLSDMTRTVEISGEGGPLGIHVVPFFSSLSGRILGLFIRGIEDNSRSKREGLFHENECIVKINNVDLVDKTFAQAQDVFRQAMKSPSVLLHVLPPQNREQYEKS

Inadl_4, Q8NI35 = biological target: Inadl_4, Q8NI35
APBA1_2, Q02410 = biological target: T6, APBA1_2, Q02410
T6 sequence (Q02410 742-832, limits assumed, looked up): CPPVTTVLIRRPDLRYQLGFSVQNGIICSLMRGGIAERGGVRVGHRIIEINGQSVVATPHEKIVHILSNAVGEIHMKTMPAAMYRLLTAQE

NHERF2_2, Q15599 = biological target: NHERF2_2, Q15599
TJP1_2, Q07157 = biological target: TJP1_2, Q07157
MPDZ_12, O75970 = biological target: T7, MPDZ_12, O75970
T7 sequence (O75970 1857-1958, limits assumed, looked up): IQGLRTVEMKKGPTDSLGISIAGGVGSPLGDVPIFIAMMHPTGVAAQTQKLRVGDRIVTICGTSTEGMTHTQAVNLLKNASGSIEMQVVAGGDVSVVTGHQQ

FRMPD2_2, Q68DX3 = biological target: FRMPD2_2, Q68DX3
PTPN13_1, Q12923 = biological target: T8, PTPN13_1, Q12923
T8 sequence (Q12923 1088-1188, limits assumed, looked up): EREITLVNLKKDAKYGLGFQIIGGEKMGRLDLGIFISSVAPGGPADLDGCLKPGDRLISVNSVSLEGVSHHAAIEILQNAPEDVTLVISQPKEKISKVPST

Inadl_6, Q8NI35 = biological target: Inadl_6, Q8NI35
LAP2, Q96RT1 = biological target: LAP2, Q96RT1
PDZD7_3, Q9H5P4 = biological target: T9, PDZD7_3, Q9H5P4
T9 sequence (Q9H5P4 857-944, limits assumed, looked up): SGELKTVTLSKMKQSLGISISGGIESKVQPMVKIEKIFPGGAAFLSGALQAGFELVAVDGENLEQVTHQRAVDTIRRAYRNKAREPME

APBA3_1, O96018 = biological target: T10, APBA3_1, O96018
T10 sequence (O96018 389-490, limits assumed, looked up): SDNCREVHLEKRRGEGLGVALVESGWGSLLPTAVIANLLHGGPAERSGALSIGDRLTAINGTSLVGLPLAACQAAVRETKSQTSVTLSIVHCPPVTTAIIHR

GIPC2, Q8TF65 = biological target: GIPC2, Q8TF65
DLG1_2, Q12959 = biological target: DLG1_2, Q12959
GRIP1_4, Q9Y3R0 = biological target: T11, GRIP1_4, Q9Y3R0
T11 sequence (Q9Y3R0 467-571, limits assumed, looked up): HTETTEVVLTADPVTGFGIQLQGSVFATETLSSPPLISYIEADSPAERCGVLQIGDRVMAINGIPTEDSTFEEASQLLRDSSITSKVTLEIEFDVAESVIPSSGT

FRMPD2_3, Q68DX3 = biological target: FRMPD2_3, Q68DX3
SHANK1, Q9Y566 = biological target: T12, SHANK1, Q9Y566
T12 sequence (Q9Y566 658-767, limits assumed, looked up): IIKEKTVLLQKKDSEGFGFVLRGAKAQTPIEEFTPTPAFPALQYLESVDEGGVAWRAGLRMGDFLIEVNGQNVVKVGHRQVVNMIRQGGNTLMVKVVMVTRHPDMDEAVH

MAGI2_4, Q86UL8 = biological target: MAGI2_4, Q86UL8
DLG3_2, Q92796 = biological target: T13, DLG3_2, Q92796
T13 sequence (Q92796 221-321, limits assumed, looked up): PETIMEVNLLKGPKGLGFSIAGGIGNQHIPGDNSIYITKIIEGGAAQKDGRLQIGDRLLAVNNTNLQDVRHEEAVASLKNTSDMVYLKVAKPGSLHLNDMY

[1] = plain residues with an end cap or a label only (N-terminal biotin on a linker: ttds)
[2] = plain residues with an end cap or a label only (N-terminal biotin on a linker: ado-ado)

Chain of GIPC2, Q8TF65 (Q8TF65 112-203): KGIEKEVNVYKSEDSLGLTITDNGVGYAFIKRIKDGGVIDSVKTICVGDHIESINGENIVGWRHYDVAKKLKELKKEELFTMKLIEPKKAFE
Chain of NHERF2_2, Q15599 (Q15599 142-238): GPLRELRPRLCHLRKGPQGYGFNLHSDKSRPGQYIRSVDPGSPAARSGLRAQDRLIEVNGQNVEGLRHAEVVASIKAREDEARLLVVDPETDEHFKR
Chain of TJP1_2, Q07157 (Q07157 181-274): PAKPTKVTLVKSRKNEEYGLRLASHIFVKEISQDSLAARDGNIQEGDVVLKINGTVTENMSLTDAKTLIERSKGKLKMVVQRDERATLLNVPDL
Chain of FRMPD2_2, Q68DX3 (Q68DX3 944-1038): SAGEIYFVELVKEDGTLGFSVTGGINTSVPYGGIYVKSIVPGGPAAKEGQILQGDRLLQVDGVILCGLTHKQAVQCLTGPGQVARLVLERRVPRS
Chain of Inadl_6, Q8NI35 (Q8NI35 1058-1167): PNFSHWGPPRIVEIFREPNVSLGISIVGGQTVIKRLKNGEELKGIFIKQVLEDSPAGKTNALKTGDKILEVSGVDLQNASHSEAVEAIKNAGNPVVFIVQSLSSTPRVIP
Chain of MAGI2_4, Q86UL8 (Q86UL8 772-865): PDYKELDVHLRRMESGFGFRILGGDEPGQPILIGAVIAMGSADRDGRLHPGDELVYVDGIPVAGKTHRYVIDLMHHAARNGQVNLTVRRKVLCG
Chain of LAP2, Q96RT1 (Q96RT1 other isoform, or with tags, fused parts or gaps): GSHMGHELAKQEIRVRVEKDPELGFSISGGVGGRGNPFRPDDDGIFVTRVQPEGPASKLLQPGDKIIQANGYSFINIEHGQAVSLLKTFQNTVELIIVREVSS
Chain of CASK, O14936 (O14936 487-570): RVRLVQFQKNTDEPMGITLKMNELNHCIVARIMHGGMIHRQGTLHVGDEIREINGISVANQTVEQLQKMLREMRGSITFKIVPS
Chain of DLG1_2, Q12959 (Q12959 314-412): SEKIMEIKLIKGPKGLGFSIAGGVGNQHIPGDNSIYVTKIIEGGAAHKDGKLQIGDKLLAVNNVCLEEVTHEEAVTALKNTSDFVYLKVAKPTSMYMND
Chain of FRMPD2_3, Q68DX3 (Q68DX3 1073-1166): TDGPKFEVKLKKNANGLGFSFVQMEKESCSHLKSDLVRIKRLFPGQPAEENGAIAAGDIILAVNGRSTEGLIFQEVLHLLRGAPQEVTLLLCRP
Chain of Inadl_4, Q8NI35 (Q8NI35 547-651): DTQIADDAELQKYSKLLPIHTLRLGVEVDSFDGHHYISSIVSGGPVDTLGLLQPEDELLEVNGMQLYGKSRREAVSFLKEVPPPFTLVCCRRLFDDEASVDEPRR

DPRNTQTSQI [ABRAXAS2, Q15018]
pKd (MPP6, Q9NZW5; [1]): below the threshold
pKd (GRIP1_3, Q9Y3R0; [1]): below the threshold
pKd (CASK, O14936; [1]): 3.55
pKd (DFNB31_1, Q9P202; [1]): 4.06
pKd (PCLO, Q9Y6V0; [1]): 3.66
pKd (PARD3B_1, Q8TEW8; [1]): 3.69
pKd (Inadl_4, Q8NI35; [1]): below the threshold
pKd (APBA1_2, Q02410; [1]): 3.71
pKd (NHERF2_2, Q15599; [1]): 3.6
pKd (TJP1_2, Q07157; [1]): below the threshold
pKd (MPDZ_12, O75970; [1]): below the threshold
pKd (FRMPD2_2, Q68DX3; [1]): below the threshold
pKd (PTPN13_1, Q12923; [1]): below the threshold
pKd (Inadl_6, Q8NI35; [1]): below the threshold
pKd (LAP2, Q96RT1; [1]): 3.53
pKd (PDZD7_3, Q9H5P4; [1]): 4.31
pKd (APBA3_1, O96018; [1]): below the threshold
pKd (GIPC2, Q8TF65; [1]): 3.54
pKd (DLG1_2, Q12959; [1]): 3.84
pKd (GRIP1_4, Q9Y3R0; [1]): below the threshold
pKd (FRMPD2_3, Q68DX3; [1]): 3.54
pKd (SHANK1, Q9Y566; [1]): below the threshold
pKd (MAGI2_4, Q86UL8; [1]): below the threshold
pKd (DLG3_2, Q92796; [1]): 3.81

GGPKEEESPV [SLC16A1, P53985]
pKd (MPP6, Q9NZW5; [1]): below the threshold
pKd (GRIP1_3, Q9Y3R0; [1]): below the threshold
pKd (CASK, O14936; [1]): below the threshold
pKd (DFNB31_1, Q9P202; [1]): 3.5
pKd (PCLO, Q9Y6V0; [1]): below the threshold
pKd (PARD3B_1, Q8TEW8; [1]): below the threshold
pKd (Inadl_4, Q8NI35; [1]): below the threshold
pKd (APBA1_2, Q02410; [1]): below the threshold
pKd (NHERF2_2, Q15599; [1]): below the threshold
pKd (TJP1_2, Q07157; [1]): below the threshold
pKd (MPDZ_12, O75970; [1]): below the threshold
pKd (FRMPD2_2, Q68DX3; [1]): 4.01
pKd (PTPN13_1, Q12923; [1]): below the threshold
pKd (Inadl_6, Q8NI35; [1]): below the threshold
pKd (LAP2, Q96RT1; [1]): below the threshold
pKd (PDZD7_3, Q9H5P4; [1]): below the threshold
pKd (APBA3_1, O96018; [1]): below the threshold
pKd (GIPC2, Q8TF65; [1]): below the threshold
pKd (DLG1_2, Q12959; [1]): 3.56
pKd (GRIP1_4, Q9Y3R0; [1]): below the threshold
pKd (FRMPD2_3, Q68DX3; [1]): below the threshold
pKd (SHANK1, Q9Y566; [1]): below the threshold
pKd (MAGI2_4, Q86UL8; [1]): below the threshold
pKd (DLG3_2, Q92796; [1]): below the threshold

EEPEERHTEL [CES2, O00748]
pKd (MPP6, Q9NZW5; [2]): below the threshold
pKd (GRIP1_3, Q9Y3R0; [2]): below the threshold
pKd (CASK, O14936; [2]): below the threshold
pKd (DFNB31_1, Q9P202; [2]): 3.6
pKd (PCLO, Q9Y6V0; [2]): below the threshold
pKd (PARD3B_1, Q8TEW8; [2]): 3.71
pKd (Inadl_4, Q8NI35; [2]): below the threshold
pKd (APBA1_2, Q02410; [2]): 3.5
pKd (NHERF2_2, Q15599; [2]): 4.63
pKd (TJP1_2, Q07157; [2]): below the threshold
pKd (MPDZ_12, O75970; [2]): below the threshold
pKd (FRMPD2_2, Q68DX3; [2]): below the threshold
pKd (PTPN13_1, Q12923; [2]): below the threshold
pKd (Inadl_6, Q8NI35; [2]): 3.87
pKd (LAP2, Q96RT1; [2]): below the threshold
pKd (PDZD7_3, Q9H5P4; [2]): 4.72
pKd (APBA3_1, O96018; [2]): below the threshold
pKd (GIPC2, Q8TF65; [2]): below the threshold
pKd (DLG1_2, Q12959; [2]): 4.13
pKd (GRIP1_4, Q9Y3R0; [2]): below the threshold
pKd (FRMPD2_3, Q68DX3; [2]): below the threshold
pKd (SHANK1, Q9Y566; [2]): 4.55
pKd (MAGI2_4, Q86UL8; [2]): below the threshold
pKd (DLG3_2, Q92796; [2]): 4.38
